Assay results from US10918733B2, “Lipopeptide- and lipoprotein-conjugates and its use” (HELMHOLTZ-ZENTRUM FUER INFEKTIONSFORSCHUNG GMBH, priority 2009, dated 2021).

Legend:
[1] = system: Ova-specific CD4+ T cells; assay: Proliferation of CFSE-stained T cells co-cultured with treated DC: CD4+ T cells; type: cell-based, OT2-tg mice; conditions: DC incubated with 10 μg/mL for 24 h, co-culture 4 days
Description: T cell-mediated immune responses were investigated 96 h by measuring the proliferation of cells recovered from spleens after restimulation with BPPcysOva^mPEG. Non-Ag restimulated spleen cells were chosen as negative controls (FIG. 3). […] Taking into consideration that the BPPcysOva^mPEG has a promising effect on DC activation and maturation, next the capacity of these APC to stimulate the proliferation of antigen-specific CD8+ and CD4+ T cells was evaluated. Concentrations below 10^−8 M of BPPcysOva^mPEG were still able to induce an antigen specific proliferation of CD4+ T cells shown by the reduction of CFSE+ cells (FIGS. 4A-E).
FIG. 4: Proliferation of CD8+, CD4+ and regulatory T cells. DC were generated from bone marrow of C57BL/6 mice and incubated with 10 μg/mL of B) Ova C) Ova peptides, D) Ova in the presence of BPPcysMPEG and E) BPPcysOva^mPEG alone (A) Control) for 24 h. The following day, CD4+ T cells from spleens of OT2-tg animals or CD8+ T cells of OT1-tg animals were isolated. After staining with CFSE, CD8+, CD4+ T cells were co-cultured with adjuvant-treated DCs for 4 days. The decrease of CFSE-FITC expression due to cell division of CD8+ or CD4+ T cells were analysed by flow cytometric analysis. One representative experiment out of two is shown.

spleen cells = assay: Proliferation of spleen cells of immunized mice after in vitro restimulation with Ova, day 42 (Example 5); type: in vivo; conditions: s.c., restimulation with 0.1 up to 40 μg/ml Ova
Description: Experimental protocol: Spleens were removed and pooled for analysis of cellular immune responses. Cells were grown in RPMI 1640 supplemented with 10% fetal calf serum, 100 U/ml of penicillin, 50 μg/ml of streptomycin, 5×10^−5 M 2-mercaptoethanol and 1 mM L-glutamine (GIBCO BRL, Karlsruhe, Germany) and maintained at 37° C. in a humidified 5% CO2 atmosphere. Lymph node and spleen cell suspensions were adjusted to 5×10^6 cells/ml in complete medium, cells were seeded with 100 μl per well in a flat-bottomed 96-well microtiter plate (Nunc) and plates were incubated for 4 days in the presence of different concentrations of Ova. Each concentration was tested in triplicates. During the final 18 h of culture, 1 μCi of [^3H]thymidine (Amersham International, Freiburg, Germany) was added to each well. Cells were then harvested on paper filters (Filtermat A; Wallac, Freiburg, Germany) by using a cell harvester (Inotech, Wohlen, Switzerland), and the amount of incorporated [^3H]thymidine into the DNA of proliferating cells was determined by a β-scintillation counter (Wallac 1450, Micro-Trilux). The results are expressed as the arithmetic mean of [^3H]thymidine uptake in cpm.
T cell-mediated immune responses were investigated at day 42 by measuring the proliferation of cells recovered from spleens after in vitro restimulation with Ova. […]

[2] = system: Ova-specific secretory IgA; assay: Local Ova-specific secretory IgA in lavages after i.n. immunization (ELISA); type: in vivo, C57BL6 mice; conditions: day 38
Description: Experimental protocol: at day 38, mice were sacrificed and the final sampling was performed. Vaginal and lung lavages were obtained by flushing the organs with 1 ml of PBS supplemented with 50 mM EDTA, 0.1% BSA, and 10 mM PMSF. Lavages were then centrifuged to remove debris (10 min at 3000×g), and supernatant fluids were stored at −20° C. To determine the concentration of total IgA present in the lung and vaginal lavages, serial dilutions of the corresponding samples were incubated in microtiter plates that were previously coated with goat anti-mouse IgA (Sigma Chemie), as capture antibodies (100 μl/well). Serial dilutions of purified mouse IgA (Sigma Chemie) were used to generate a standard curve.
To investigate the capacity of BPPcysOva^mPEG to stimulate local immune responses given by the i.n. route, we analyzed the production of Ova-specific secretory IgA in lung, nasal and vaginal lavages from immunized animals.
FIG. 5: Humoral responses stimulated following vaccination using BPPcysOva^mPEG. […] At day 38 post primary immunisation, serum samples were collected and the IgG 1 and IgG2c titres of Ova-specific antibodies were determined by ELISA. […] At day 38 post primary immunisation broncho alveolar lavage (BAL), nasal lavages (NL) and Vaginal lavages (VL) were collected and the Ova-specific secretory IgA (sIgA) expression in samples of immunized mice were determined by ELISA.

B1: Ova: model antigen ovalbumin (Sigma Chemie) (protein, UniProt P01012 2-386, looked up)
Ovalbumin: GSIGAASMEFCFDVFKELKVHHANENIFYCPIAIMSALAMVYLGAKDSTRTQINKVVRFDKLPGFGDSIEAQCGTSVNVHSSLRDILNQITKPNDVYSFSLASRLYAEERYPILPEYLQCVKELYRGGLEPINFQTAADQARELINSWVESQTNGIIRNVLQPSSVDSQTAMVLVNAIVFKGLWEKAFKDEDTQAMPFRVTEQESKPVQMMYQIGLFRVASMASEKMKILELPFASGTMSMLVLLPDEVSGLEQLESIINFEKLTEWTSSNVMEERKIKVYLPRMKMEEKYNLTSVLMAMGITDVFSSSANLSGISSAESLKISQAVHAAHAEINEAGREVVGSAEAGVDAASVSEEFRADHPFLFCIKHIATNAVLFFGRCVSP
- stimulation of proliferation of Ova-specific CD4+ T cells by treated DC [1]: weak stimulation
- proliferative response of spleen cells, s.c. immunization (spleen cells): significant proliferative response
- Ova-specific IgA in lung lavages [2]: failed to stimulate the production of detectable levels
